Measured values from patent publication US20030166009A1 (MERCK, published 2003).
Read-outs that look alike come from different tables or passages of the source. Where no end group is shown, it is not given here.

B1: ACTH1-39 (peptide, UniProt P01189 138-176, looked up)
peptide: SYSMEHFRWGKPVGKKRRPVKVYPNGAEDESAEAFPLEF
notes: domain: ACTH1-39; The numbers 1-39 count on the ACTH peptide, not on the precursor
B2: Gamma MSH (peptide, UniProt P01189 77-87, looked up)
peptide: YVMGHFRWDRF
modifications: ends and bridges not checked
notes: domain: gamma MSH; The peptide is only a part of it; also called γ-MSH
B3: Beta MSH (peptide, UniProt P01189 217-234, looked up)
peptide: DEGPYRMEHFRWGSPPKD
notes: domain: beta MSH; The peptide is only a part of it; also called β-MSH
B4: Alpha MSH (peptide, UniProt P01189 138-150, looked up)
peptide: SYSMEHFRWGKPV
notes: domain: alpha MSH; The peptide is only a part of it; also called α-MSH; α-melanocyte stimulating hormone

Experiments:
[1] = target: rhesus melanocortin-4 receptor protein (rhesus monkey (Macaca mulatta))
rhesus melanocortin-4 receptor protein (rhesus monkey (Macaca mulatta)), sequence (Q8HXX3 whole entry R167G): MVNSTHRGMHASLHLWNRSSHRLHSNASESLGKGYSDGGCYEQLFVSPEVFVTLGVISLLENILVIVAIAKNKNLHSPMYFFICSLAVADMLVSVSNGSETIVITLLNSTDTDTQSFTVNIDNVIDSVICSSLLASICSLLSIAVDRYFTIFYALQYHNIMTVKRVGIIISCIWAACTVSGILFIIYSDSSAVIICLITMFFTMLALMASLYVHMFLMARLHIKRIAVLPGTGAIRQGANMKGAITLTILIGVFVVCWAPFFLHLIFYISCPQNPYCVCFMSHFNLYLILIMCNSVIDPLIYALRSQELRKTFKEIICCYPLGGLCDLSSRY

[2] = target: T1, human MC4 receptor (human, UniProt P32245 1-332)
T1 construct: whole, on cells; It was tested as crude membranes prepared from cells expressing the receptor; also called hMC-4R
T1 sequence (P32245 whole entry): as the sequence (Q8HXX3 whole entry R167G) above, with A11T, H21Y, T114A, V296I counted along it

[3] = target: T2, human MC5 receptor (human, UniProt P33032 1-325)
T2 construct: whole, on cells; It was tested as crude membranes prepared from cells expressing the receptor; also called hMC-5R
T2 sequence (P33032 whole entry): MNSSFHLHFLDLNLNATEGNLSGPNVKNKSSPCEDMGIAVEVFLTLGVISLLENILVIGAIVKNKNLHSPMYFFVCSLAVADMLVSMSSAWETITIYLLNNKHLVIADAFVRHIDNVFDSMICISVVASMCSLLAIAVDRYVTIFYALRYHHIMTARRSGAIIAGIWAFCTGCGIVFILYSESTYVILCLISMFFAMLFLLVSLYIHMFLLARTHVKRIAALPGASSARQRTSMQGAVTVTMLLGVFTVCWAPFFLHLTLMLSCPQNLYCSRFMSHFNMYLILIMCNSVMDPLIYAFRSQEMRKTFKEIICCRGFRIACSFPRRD

[4] = target: T3, human MC3 receptor (human, UniProt P41968 1-323)
T3 construct: whole, on cells; It was tested as crude membranes prepared from cells expressing the receptor; also called hMC-3R
T3 sequence (P41968 whole entry): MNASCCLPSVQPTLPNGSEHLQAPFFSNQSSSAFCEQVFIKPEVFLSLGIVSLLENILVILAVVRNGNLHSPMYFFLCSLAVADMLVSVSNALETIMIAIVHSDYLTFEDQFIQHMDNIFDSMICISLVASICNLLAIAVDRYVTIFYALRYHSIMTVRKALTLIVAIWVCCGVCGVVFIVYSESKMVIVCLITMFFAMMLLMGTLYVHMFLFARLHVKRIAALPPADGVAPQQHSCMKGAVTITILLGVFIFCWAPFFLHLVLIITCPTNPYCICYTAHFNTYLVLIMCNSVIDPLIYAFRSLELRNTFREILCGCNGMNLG

[5] = target: T4, rhesus melanocortin-4 receptor protein (rhesus monkey (Macaca mulatta), UniProt Q8HXX3 1-332 (cynomolgus entry))
T4 construct: This is the full-length 332 amino acid receptor encoded by pVE3099; also called rhMC-4R; rhesus MC-4R
T4 sequence (Q8HXX3 whole entry R167G): as the sequence (Q8HXX3 whole entry R167G) above
Description: (§1) Reactions were incubated for 1 hour without shaking and then filtered through 96-well filter plates (Packard corp.). Filters were washed three times with TNE buffer (50 mM Tris pH 7.4, 5 mM EDTA, 150 mM NaCl), dried and counted using Microscint-20 in a Topcount scintillation counter (Packard).
(§2) Membranes prepared from rhesus MC-4R transfected cells were evaluated alongside membranes prepared from human MC-4R, MC-4R, and MC-5R expressing cells.

[6] = target: T3, human MC3 receptor; remark: listed apart in the source
Description: as §1, §2

[7] = target: T1, human MC4 receptor; remark: listed apart in the source
Description: as §1, §2

[8] = target: T2, human MC5 receptor; remark: listed apart in the source
Description: as §1, §2

Molecule | IC50 [1] [nM] | IC50 [2] [nM] | IC50 [3] [nM] | IC50 [4] [nM] | IC50 [5] [nM] | IC50 [6] [nM] | IC50 [7] [nM] | IC50 [8] [nM]
MTII (peptide) | 0.1 | 0.1 | 0.9 | – | – | – | – | –
NDP-alpha-MSH (peptide) | 1.3 | 0.6 | 0.4 | 0.6 | – | – | – | –
SHU-9119 (peptide) | 0.2 | 0.1 | 0.1 | 0.3 | – | – | – | –
B1 | – | – | – | – | 1.3 | 6 | 6 | 0.4
B2 | – | – | – | – | 211 | – | – | –
B3 | – | – | – | – | 23 | 23 | – | 166
B4 | – | – | – | – | 27 | – | – | –
